Reference: US20180016352A1 (published 2018)

Key:
Assay in all cases: indirect ELISA, recombinant receptor coated, anti-c-myc HRP
[1] = molecular target: recombinant EphA2 receptor (UniProt P29317 25-534, limits assumed)
Protocol: (§1) The target binding of the BsAbs was evaluated by indirect ELISA methods using PEG polymer and recombinant target proteins immobilized on ELISA plates. Individual wells of a 96 well Maxisorp plate were coated with 100 μL of 10 μg/mL of polymer (polyethylene glycol monomethyl ether methacrylate) or 10 μg/mL of target recombinant receptor (EphA2, VEGFR2, Mesothelin and EGFR) for 16-20 hr at 4C. PEG and target receptors were diluted in phosphate buffered saline (PBS pH 7.4). […] The blocker was decanted and 100 μL of BsAb, either in cell culture supernatant or purified protein stored in PBS, was added to each well. The BsAb was incubated for 2 hr and then decanted. The wells were washed five times manually in PBST and 100 μL of HRP labeled anti-c-myc antibody diluted 1/5000 in blocker was added to each well and incubated for 30 mins. The c-myc antibody was then decanted and the wells washed again five times manually with PBST. One hundred microliters of TMB was added to all wells and incubated for 10-15 mins or until adequate color development was identified. The TMB colorimetric reaction was neutralized by adding 100 μL of 2M sulfuric acid. The colorimetric reactions in each well was analyzed at an absorbance of 450 nm using the Spectramax plate reader.

recombinant Mesothelin = recombinant Mesothelin (UniProt Q13421 296-580, limits assumed)
Protocol: as §1

recombinant EGFR = molecular target: T1, recombinant EGFR (UniProt P00533 25-645, limits assumed)
T1 construct: It may be the same reagent as rEGFR-hFc; also called rEGFR
Protocol: as §1

Measured: binding result

Chain of recombinant Mesothelin (Q13421 other isoform, or with tags, fused parts or gaps limits assumed): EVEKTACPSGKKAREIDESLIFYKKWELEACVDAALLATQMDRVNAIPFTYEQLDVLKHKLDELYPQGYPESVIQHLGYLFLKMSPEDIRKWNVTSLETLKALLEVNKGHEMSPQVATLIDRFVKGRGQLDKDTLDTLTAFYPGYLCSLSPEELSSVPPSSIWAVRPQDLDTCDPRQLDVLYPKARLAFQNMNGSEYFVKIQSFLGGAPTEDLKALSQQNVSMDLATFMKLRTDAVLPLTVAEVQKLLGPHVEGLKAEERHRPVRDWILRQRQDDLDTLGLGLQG
Chain of recombinant EphA2 receptor (P29317 25-534 limits assumed): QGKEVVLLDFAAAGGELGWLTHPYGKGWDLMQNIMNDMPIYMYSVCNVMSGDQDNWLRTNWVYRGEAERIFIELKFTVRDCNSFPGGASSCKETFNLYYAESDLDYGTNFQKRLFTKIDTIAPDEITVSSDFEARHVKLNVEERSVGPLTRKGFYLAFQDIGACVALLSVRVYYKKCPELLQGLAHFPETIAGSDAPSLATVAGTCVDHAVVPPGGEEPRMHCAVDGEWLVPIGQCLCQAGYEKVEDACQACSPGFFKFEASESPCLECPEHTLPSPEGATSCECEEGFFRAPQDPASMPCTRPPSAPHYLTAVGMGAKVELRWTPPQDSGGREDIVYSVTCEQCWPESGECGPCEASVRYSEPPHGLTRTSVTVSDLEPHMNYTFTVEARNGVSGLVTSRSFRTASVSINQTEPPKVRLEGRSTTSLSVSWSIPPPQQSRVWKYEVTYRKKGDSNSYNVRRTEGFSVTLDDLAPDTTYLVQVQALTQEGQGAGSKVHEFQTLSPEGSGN

B1: VEGF-15.2 (BsAb targeting VEGFR2) (other)
chain: HHHHHHEVVKFMDVYQRSYCHPIETLVDIFQEYPDEIEYIFKPSCVPLMRCGGCCNDEGLECVPTEESNITMQIMRIKPHQGQHIGEMSFLQHNKCECRPKKDGSTSGSGKSSEGKGEVVKFMDVYQRSYCHPIETLVDIFQEYPDEIEYIFKPSCVPLMRCGGCCNDEGLECVPTEESNITMQIMRIKPHQGQHIGEMSFLQHNKCECRPKKDSGGGGSEVKLEESGGGLVQPGGSMKLSCVASGFTFSNYWMNWVRQSPEKGLEWVTEIRSKSNNYATHYAESVKGRFTISRDDSKGSVYLQMNNLRAEDTGIYYCSNRYYWGQGTLVTVSAGGGGSGGGGSGGGGSDIVMTQSHKFMSTSVRDRVTITCKASQDVNTSVAWYQQKPGQSPKLVIYWASTRHTGVPDRFTGSGSGTDFTLTISNVQSEDLADYFCLQYINYPYTFGGGTKLEIKEQKLISEEDLN
no binding: all assays above
